Results as given in the Human Domainome abundance scans (Beltran et al. 2025).

B1: Membrane-associated guanylate kinase, WW and PDZ domain-containing protein 1, residues 352 to 401; numbered along this chain, Q96QZ7 (parent)
chain: TEELDSELELPAGWEKIEDPVYGIYYVDHINRKTQYENPVLEAKRKKQLE

Variants of: B1
Assay: abundance fitness (aPCA) (normalised: wild type 0, dead -1); higher = more abundant; growth selection in yeast, the domain comes from the species named
Conditions: Homo sapiens

Abundance fitness: each site, then its substitutions
W14: T -0.254, P -0.598, D -0.539, A -0.686, I 0.071, N 0.02, L -0.897, C -0.324, V -0.5, G -0.475, S -0.46, H -0.592, K -0.45, R -0.438, E -0.416, Y -0.775, Q -0.631, F -0.458
I17: G -0.602, Q -0.809, D -0.637, E -0.408, A -0.227, S -0.484, V 0.072, N -0.604, R -0.01, C -0.252, Y -0.06, T -0.266, M -0.041, W -0.322, H -0.241, P -0.836, F -0.258, L -0.065
S6: G -0.041, D -0.141, A -0.033, L -0.073, T 0.142, W -0.44, N -0.171, P -0.358, I -0.184, H -0.203, V 0.062, R 0.103, C -0.447, M -0.179, Q -0.046, F -0.231, K -0.148, E -0.183
L8: E -0.2, K 0.095, F -0.091, W -0.12, Q -0.016, T -0.105, S -0.22, H -0.15, G -0.15, I -0.361, P -0.248, M -0.023, N -0.561, Y -0.103, A -0.042, V -0.266, D -0.505
E2: Q -0.145, A -0.185, Y -0.403, M -0.265, K -0.214, H -0.523, L -0.35, W 0.113, S -0.191, T 0.129, V -0.02, P -0.266
